Results taken from IntAct's records for PubMed 8887672.

B1: RNA polymerase I-specific transcription initiation factor RRN6 (Saccharomyces cerevisiae), P32786 (parent)
chain: MSEGQIPSSDVLGSQLGVGVQGASLYCPQENYTTKKQEKPQWLRPVDDTLAEDALDLHIVVKSLLCDTAIRYISDDKVLQESDADDDLITSDIDEDTDNQGDTSIVVNPVIPVVPKDVHFFKKVDVGNDSMFGVNCDTPVSFQDYIPSDLLRNLDDTLQESTNSSRPMQDAFFWDPTVANRLDSQYIQTASDLRNYRDGTEIIAYASGKTGSVLNIAVLTRQNTLHLNRHNNVTSIELHSPIKSIKIPGASESIGRRSNLVGIITENSFQIFRIESVHSRSCDVMVSSSEPLYFVEIDDLQVVDFAFNPWDLQQFAIIDIKGNWSIGRIPKNFNNNNKRKLQLIDNLHGTIFDPEELSSWKRIEWFSHFQKILVFDRSKMIEIDFMNNWQTEVVQAKAWSNIRDYKRIDDKNGILLTSREIIIVGASESNDPVRRISWKHDLDPDDTTLRITVQKVKKPDHILLVAFVYSMRHKRIYMHVFSHRKANLFQSLGCSTVLEIPGGTPTGIETILTLDHIDDESRREEDADENFELVVDFLVKLRNSSEVYYYALSNTQNSEPNKQETPIIVDHPEWASLFNNADEREKESIGALVSQIKLKERERISRVQNLIEHENSHDEDKYLQDLGYRLSIATNELLESWQKTKDESILSGSLSHSKLKNLLENSDSFASIPEFSSLLDQFFQYYQDQDVTFIGFEKLLHLFLHEDVPGLDIFYNKLLQCWVLVSPQAELLTKEIVKDIIWSLARLEKPSLFEPIQNEISRSLSGPYQDIISSWDMDDINEEDESNEFNFDSQFSAPFNGRPPFNLNSQSQIPTIKSSQSSGLARRKRILKTQSQKATPLSQSTQNLSVLPDSMTPAFTLMQPPSSQISFVNDSQPRNSQKAKKKKKRIRGFG
partner: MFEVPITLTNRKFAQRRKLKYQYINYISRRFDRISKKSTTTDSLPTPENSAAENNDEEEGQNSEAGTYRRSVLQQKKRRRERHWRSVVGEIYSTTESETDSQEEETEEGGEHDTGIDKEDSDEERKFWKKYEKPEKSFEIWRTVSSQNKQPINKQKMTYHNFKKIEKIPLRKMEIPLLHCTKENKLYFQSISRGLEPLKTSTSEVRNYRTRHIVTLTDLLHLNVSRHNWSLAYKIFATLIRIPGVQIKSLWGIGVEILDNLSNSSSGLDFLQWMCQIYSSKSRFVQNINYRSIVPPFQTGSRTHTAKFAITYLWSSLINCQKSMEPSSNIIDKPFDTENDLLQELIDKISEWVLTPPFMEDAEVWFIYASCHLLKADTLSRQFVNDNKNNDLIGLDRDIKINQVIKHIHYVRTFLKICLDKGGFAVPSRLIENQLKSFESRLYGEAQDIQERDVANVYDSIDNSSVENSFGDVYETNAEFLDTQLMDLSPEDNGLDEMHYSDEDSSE
B2: RNA polymerase I-specific transcription initiation factor RRN11 (Saccharomyces cerevisiae), Q04712 (parent)
chain: B1 partner
partner: B1 chain

Variants of: B1
Settings: with rrn11_yeast RRN11, Q04712

Variant | effect of a mutation on the interaction
L50A;L57A;L64A | decreasing interaction

Variants of: B2
Settings: with rrn6_yeast RRN6, P32786

Variant | effect of a mutation on the interaction
MFEVPITLTNRKFAQRRKLKYQYINYISRRFDRISKKSTTTDSLPTPENSAAENNDEEEGQNSEAGTYRRSVLQQKKRRRERHWRSVVGEIYSTTESETDSQEEETEEGGEHDTGIDKEDSDEERKFWKKYEKPEKSFEIWRTVSSQNKQPINKQKMTYHNFKKIEKIPLRKMEIPLLHCTKENKLYFQSISRGLEPLKTSTSEVRNYRTRHIVTLTDLLHLNVSRHNWSLAYKIFATLIRIPGVQIKSLWGIGVEILDNLSNSSSGLDFLQWMCQIYSSKSRFVQNINYRSIVPPFQTGSRTHTAKFAITYLWSSLINCQKSMEPSSNIIDKPFDTENDLLQELIDKISEWVLTPPFMEDAEVWFIYASCHLLKADTLSRQFVNDNKNNDLIGLDRDIKINQVIKHIHYVRTFLKICLDKGGFAVPSRLIENQLKSFESRLYGEAQDIQERDVANVYDSIDNSSVENSFGDVYETNAEFADTQLMDASPEDNGADEMHYSDEDSSE [L481A;L488A;L495A] | decreasing interaction
